# From publication PMC4654632 (Journal of molecular biology, 2012)
# Assay: HPLC sedimentation assay of fibril thermodynamic stability
# Assay type: physicochemical
# Conditions: from Cr (Ka = 1/Cr), PBS pH 7.4, 25 °C
substance,measurement,value
"wild-type: wild-type amyloid-β 40-residue peptide (Aβ40), made by Fmoc solid-phase synthesis",ΔG (free energy of association),-7.2 ± 0.2 kcal/mol
